Patent US20230212319A1, “NOVEL ANTIGEN BINDING DOMAINS AND SYNTHETIC ANTIGEN RECEPTORS INCORPORATING THE SAME” (University of Southern California, priority 2020, published 2023)

Test system: RAJI cells
Test: JNG assay, co-culture with RAJI cells
Format: cell-based
Conditions: for NFAT-GFP ASSAY: Raji: JNG cells expressing construct, co-culture with Raji
Experimental: Cellular supernatant is collected and assayed for the induction of cytokines (e.g., IL2).
JNG (Jurkat cells expressing EGFP under an NFAT promoter) were infected with lentiviral vectors encoding different single chain and multi-chain SARs by spinfection in the presence of 8 µg/ml of Polybrene® (Sigma, Catalog no. H9268). The Jurkat-NFAT-GFP cells are engineered in such a way that the IL-2 promoter, which carries NFAT binding sites, is cloned upstream of the GFP gene. These cells have been used to study signaling via TCR and CAR. The different SARs were stably expressed in Jurkat NFAT-GFP cells by lentiviral mediated gene transfer, followed by selection with puromycin or blasticidin. No drug selection was used in case the construct lacked an antibiotic resistance gene. The SAR-expressing Jurkat-NFAT-GFP cells were cocultured with the target cells at E:T ratio of approximately 1:2 for approximately 4 hours to 18 hours. When the interaction between SIRs and their target antigen results in activation of the NFAT pathway, GFP expression is induced. […] GFP expression was monitored by FACS analysis. The Jurkat-NFAT-GFP (parental) cells were used as control. The structure of different constructs can be determined based on their names. […] The sequence of the other constructs in the table can be similarly determined from their names and by referring to the different Tables of this disclosure that provide the names and SEQ ID NO of the different modules. Alternatively, the composition and modular architecture of the different SAR constructs can be determined from their sequences by bioinformatics tools, including using nucleic acid and amino acids homology searches. A SAR is considered positive in the assay in case the SAR expressing Jurkat-NFAT-GFP cells show greater % GFP positive cells when cultured with the target cell line as compared to parental Jurkat-NFAT-GFP cells. […] In general, the number +/-, +, 2+, 3+, 4+, 5+ refer to approximately 5%, 10%, 20%, 30%, 40% and 50% GFP positive cells. The % of GFP induction in the above assay is dependent not only the relative strength of the SAR but also, among other factors, on the relative level of expression of the SAR in the JNG cells and the relative level of expression of the target antigen in the target cell line. To control for the difference in gene transduction efficiency of the different SAR constructs, the experiment was conducted with JNG cells transduced with SAR constructs co-expressing a drug resistance gene (e.g., puromycin or PAC) followed by drug selection to generate a stable population of SAR-expressing cells. It is to be noted that the drug resistance gene (e.g., PAC) in the SAR constructs is optional and in vivo studies were conducted with SAR constructs lacking the PAC gene.

B1: SEQ ID NO: 22254: bispecific SAR on CD19 targeted SIR backbone comprising the receptor binding domain of the ligand APRIL (protein)
chain: MALPVTALLLPLALLLHAARPACVLHLVPINATSKDDSDVTEVMWQPALRRGRGLQAQGYGVRIQDAGVYLLYSQVLFQDVTFTMGQVVSREGQGRQETLFRCIRSMPSHPDRAYNSCYSAGVFHLHQGDILSVIIPRARAKLNLSPHGTFLGFVKLGTGGGGSGGGGSGGGGSEFDIQMTQSPSSLSASVGDRVTITCKASDHINNWLAWYQQKPGQAPKLLIYGATTLETGVPSRFSGSGSGTDYTLTISSLQPEDFATYYCQQSWNTPWTFGQGTKLEIKRLEDLKNVFPPEVAVFEPSEAEISHTQKATLVCLATGFYPDHVELSWWVNGKEVHSGVCTDPQPLKEQPALNDSRYCLSSRLRVSATFWQNPRNHFRCQVQFYGLSENDEWTQDRAKPVTQIVSAEAWGRADCGFTSESYQQGVLSATILYEILLGKATLYAVLVSALVLMAMVKRKDSRGRAKRSGSGATNFSLLKQAGDVEENPGPTSATMDWIWRILFLVGAATGAHSGPEVQLVESGGGLVQAGGSLRLSCAASGRTFSMGWFRQAPGKEREFVAAITYSGGSPYYADSVKGRFTISRDNAKNTVYLQMNSLKPEDTAVYYCAANPTYGSDWNAENWGQGTQVTVSSGSGGGGSGGGGSGGGGSFEQVQLQQPGAELVKPGASVKMSCKASGYAFSSYWINWMKQKPGQGLEWIGQIYPGDGDTNYNGKFKGRATLTADTSSSTAYMQLSSLTSEDSAVYFCARSITTVVGCAMDYWGQGTSVTVSSTRIQNPDPAVYQLRDSKSSDKSVCLFTDFDSQTNVSQSKDSDVYITDKCVLDMRSMDFKSNSAVAWSNKSDFACANAFNNSIIPEDTFFPSPESSCDVKLVEKSFETDTNLNFQNLSVIGFRILLLKVAGFNLLMTLRLWSSRAKRSGSGVKQTLNFDLLKLAGDVESNPGPSRGHMTEYKPTVRLATRDDVPRAVRTLAAAFADYPATRHTVDPDRHIERVTELQELFLTRVGLDIGKVWVADDGAAVAVWTTPESVEAGAVFAEIGPRMAELSGSRLAAQQQMEGLLAPHRPKEPAWFLATVGVSPDHQGKGLGSAVVLPGVEAAERAGVPAFLETSAPRNLPFYERLGFTVTADVEVPEGPRTWCMTRKPGA
GFP induction / activity (co-culture with RAJI cells): retained the ability to respond

B2: 22085 (protein)
chain: MALPVTALLLPLALLLHAARPQLQLQESGPGLVKPSETLSLTCTVSGDSISSGDYYWGWIRQPPGKGLEWIGHIYYSGVTYYNPSLKSRVTISVDTSRNQFSLKLSSVTAADTAVYYCTREDSSNWRSRGQGTLVTVSSLEGSGGGGSGGGGSGEDLKNVFPPEVAVFEPSEAEISHTQKATLVCLATGFYPDHVELSWWVNGKEVHSGVCTDPQPLKEQPALNDSRYCLSSRLRVSATFWQNPRNHFRCQVQFYGLSENDEWTQDRAKPVTQIVSAEAWGRADCGFTSESYQQGVLSATILYEILLGKATLYAVLVSALVLMAMVKRKDSRGRAKRSGSGATNFSLLKQAGDVEENPGPTSMDWIWRILFLVGAATGAHSFEVQLLESGGGLIQPGGSLRLSCAASGFTFSSHAMTWVRQAPGKGLEWVSAISGSGDYTHYADSVKGRFTISRDNSKNTVYLQMNSLRAEDSAVYYCAKDEDGGSLLGHRGQGTLVTVSSTRGSIPEDTFFPSPESSCDVKLVEKSFETDTNLNFQNLSVIGFRILLLKVAGFNLLMTLRLWSS
NFAT-GFP ASSAY: Raji: +/- (refer to approximately 5%, 10%, 20%, 30%, 40% and 50% GFP positive cells)

B3: 22084 (protein)
chain: MALPVTALLLPLALLLHAARPQLQLQESGPGLVKPSETLSLTCTVSGDSISSGDYYWGWIRQPPGKGLEWIGHIYYSGVTYYNPSLKSRVTISVDTSRNQFSLKLSSVTAADTAVYYCTREDSSNWRSRGQGTLVTVSSLDSGGGGSFEQLQLQESGPGLVKPSETLSLTCTVSGGSISSGDYYWGWIRQPPGKGLEWIGHIYYSGATYYNPSLKSRVTISVDTSRNQFSLKLSSVTAADTAVYYCTRDDSSNWRSRGQGTLVTVSSTRDKTHTCPPCPAIPEDTFFPSPESSCDVKLVEKSFETDTNLNFQNLSVIGFRILLLKVAGFNLLMTLRLWSS
NFAT-GFP ASSAY: Raji: +/- (refer to approximately 5%, 10%, 20%, 30%, 40% and 50% GFP positive cells)
